{
  "source": "the DeepSol protein solubility set",
  "data": [
    {"test": "soluble on expression in E. coli; label from the status in PepcDB or PDB records", "values": [
      {"sequence": "MSLPINDQRFNGEDWINNPFFNLLSQHYLLANEHMNSLLENMEYGDENLAKRVRFFTRQYLDALSPANFIHTNPQLMAETLQSHGKNLLRGLHNLLSDVEAGSSRLIIKMTDTEAFKIGENLATTPGKVIFRNSMMELIQYCPRTTKAKSIPLLIVPPWINKYYILDLSPHNSLIRWLVEQGITVFIISWVNPDEEGHHHHHH", "soluble on expression in E. coli": "not soluble"},
      {"sequence": "MGSDKIHHHHHHMVATLAEQIKAEAIALGFDKVGIASVDPPDTEALAALDRWLAQGYQAEMDWMASDRRRDVRNLLPNAQSVICVALNYYSGDHPDPSPEVGKIARYAWGRDYHRVVEKRLKALARWLQTQQPDCECRWYVDSGPIADKVWAQRAGLGWIAKNSNVISREFGSWIFLGELVTTLALPADRPHTAHCGSCSRCLEACPTQAIVEPYVVDANRCIAYHTIENRAADLPAAIAQNLQGWVAGCDICQEVCPWNQRFAQITTLPDLQPRSELLAPALAELATLSEEAWDQQFQGSALRRIKPAMWRRNSRANLRQQSEGNRLS", "soluble on expression in E. coli": "not soluble"},
      {"sequence": "MQAVSVDETKNTVVLRAEHKNEEGRKSVDKFEVKTRNPETIKSVERKLMEKGVQRMDRHPSDGIPLRRPPSKSGHGGKYTWEGPDRMEDYEMQPDPPAMDEGDPNYDEEQVKKSGDDVAVELVKGEVEVAKEAPAGVARVEVDPRLVGR", "soluble on expression in E. coli": "soluble"},
      {"sequence": "MGSDKIHHHHHHMTPRELTCDETLAEMARVLTVEAAALTQMASEVGDPQLKAVEILEAMEGRVIVSGVGKSGHIGNKIAATLASTGTPAQFVHATEASHGDLGMVTPRDVCLVISNSGETSELADIVTYSRRFAIPLIAITRKADSTLATQADVVLLLPDAPEACGIGMAPTTSTTATLAMGDALAVALMKRRGFEREDFKVFHPGGKLGAQLMLVDGLMHTGEALPLVAPETPMTEALLIMTAKGFGLAGLVEGGRLTGIITDGDLRRNMDGLMARSAGEVATRGPKVIRRGSLASEALHDMNSRKISALFVLDNEDRVAGLLHIHDCLRAGLA", "soluble on expression in E. coli": "not soluble"},
      {"sequence": "MSHVNQAVSCIFCYFQEMSFVCGISGELTEDPVVSQVSGHIFDRRLIVKFIAENGTDPISHGELSEDQLVSLKSGGTGSAPRNVSGTSIPSLLKMLQDEWDTVMLNSFSLRQQLQIARQELSHSLYQHDAACRVISRLSKELTAAREALSTLKPHTSAKVDDDVSIDESEDQQGLSEAILAKLEEKSKSLTAERKQRGKNLPEGLAKTEELAELKQTASHTGIHSTGTPGITALDIKGNLSLTGGIDKTVVLYDYEKEQVMQTFKGHNKKINAVVLHPDNITAISASADSHIRVWSATDSSSKAIIDVHQAPVTDISLNASGDYILSASDDSYWAFSDIRSGKSLCKVSVEPGSQIAVHSIEFHPDGLIFGTGAADAVVKIWDLKNQTVAAAFPGHTAAVRSIAFSENGYYLATGSEDGEVKLWDLRKLKNLKTFANEEKQPINSLSFDMTGTFLGIGGQKVQVLHVKSWSEVVSLSDHSGPVTGVRFGENARSLVTCSLDKSLRVFSF", "soluble on expression in E. coli": "not soluble"},
      {"sequence": "MAALSDKLADAYQNARPRYPIDWFTKLAARTGQHKSAWDVGTGNGQAAIGLAEYFEKVTATDINEAQLKRAVKHERISYHHTPTTMSEDQMVALVGGDNSVDLIVAAQAVHYFDLAPFYNVAKRVLRKEGGLIAVFVYNDIIISPEVDSIMKRLVDSTFPFRTPVMNLAFDGYKTLPFPFESIGMGSEGKPIMLDIPHKLSLKGFIGFLRSWQPAMKAKERGVELVTEDLISKFEDAWGDDDDVKDIFYKAHMIVGKLSASDIERHRKRFDTNCVVTTLKDHNNSAVIASVTAAAFAGVAAYCAYSARKNS", "soluble on expression in E. coli": "soluble"},
      {"sequence": "MPIDAMSDRNHAFASDEPPEIQVHPHDRYHAVIKKCASLPPLVTAVVHPVDSQVLSAVSDAVMEKLITPLLVGPAGRIEKAADEAGIDLSKWQVIDTPHSHAAAEKAVELAAAREVGAIMKGSLHTDELLGPIVARGSGLRTGRRLSHAYVMDTAGYHKWLIVTDAVVNISPDLCAKADICRNAVDAWVALTGESCLPKIAVLAAVEVVNAAMQATLDAAALCKMAERGQITGCIIDGPLAFDNAISRQAAKEKHIVSQVAGDADILLAPDIEAGNILAKQLTFISHADAAGVVMGAKVPVILTSRADNLRTRLLSCALAVLVQRAKEEGRIK", "soluble on expression in E. coli": "soluble"},
      {"sequence": "MSAFDIVLREGTVVDGTGADPFVADVAISGGRIAAIGPNLSRGTTEINASGQIVTPGFVDLHTHYDGQVTWDNRLAPSSYHGVTTAVIGNCGVGFAPCRRDAASRDAMVRLMEGVEDIPHPVLTEGLPWTWETFPDYLDFLASRTYDIDVAAYVPHAPLRVYVMGQRGADREPATQTDIAEMCRLLEQALDRGALGIATSRSLFHRSSDGTAIPTYQAAQAELMAFAEVLRAKGKGVFQIVEDIHVPGASLDNMRELARTSGRPLTFSIGTGNTGPYGYPRLLDELAAANAEGLVMKGQLMPRGIGMILGFELTLNPFYTTSTFARLAPLPLAERLEQLRRPEIRAAILSEPMDPDPALVLGRAVRDFDHMFLLGDDPDYEQPPERSIAGRAREAGITPEELAYDVMTEGESGGLLYLAMANYADGSLDAVGDILSHPDVVLGLGDGGAHVGTICDASYSTFALCHWARDRQRGRKTVADMVHRMTQATARVIGLEDRGELAVGKRADINVIDLAQLALRPPQVCHDLPAGGRRLIQRATGYSLTMLAGEIVLRDDEPTGLLPGRLIRASLEHHHHHH", "soluble on expression in E. coli": "not soluble"},
      {"sequence": "GMELDDAYANGAYIEGAADYPPRWAASAEDFRNSLQDRARLNLSYGEGDRHKFDLFLPEGTPVGLFVFVHGGYWMAFDKSSWSHLAVGALSKGWAVAMPSYELCPEVRISEITQQISQAVTAAAKEIDGPIVLAGHSAGGHLVARMLDPEVLPEAVGARIRNVVPISPLSDLRPLLRTSMNEKFKMDADAAIAESPVEMQNRYDAKVTVWVGGAERPAFLDQAIWLVEAWDADHVIAFEKHHFNVIEPLADPESDLVAVITA", "soluble on expression in E. coli": "soluble"},
      {"sequence": "MARRNSSIKPVFCFFAEFCMVSTSLWMDTEILPEASALKGDVHCDVAVVGSGIAGLSTAYELSKRDQSVIVIDRKGIASGMTARTSAHLAPLCDDLMSEFRKLRGPEIAKLFYESQAAAVDRIEEIQASETIACDFRRLDGYLFQGHGMPADVLDEELEAVREVGAPVHRLVGVPLKGCENRHVLRYPRQATFHPLKYLAGVAAVCQTHGVRFFANSPVEEVAQGDGDVTLRTAQGQITAGNAVIATNASITDRYQLHSKVAPYRTYVLAFAIARGELPDALYWDTEDPYHYVRLQLGSDDHDVVLIGGEDHKSGEANDAEKRFAKLESWARELIPGLGRVTHRWSGQVLDTIDYAGFIGREPGSERIYLAMGDSGQGLTHGVMGAMLNTSLILGEHNPWSAVYAPGRTPLAAARNFLRENLTILQNLAEYVAPGEIASLEKIEPSEGAILRRGFEKIAAYRDKAGELHLHSASCTHIGCHLHWNSFETCWDCPCHGSIFAPNGQPINAPAVSALRPVKVLEHHHHHH", "soluble on expression in E. coli": "not soluble"},
      {"sequence": "MPSIRVVNLKKYFGKVKAVDGVSFEVKDGEFVALLGPSGCGKTTTLLMLAGIYKPTSGEIYFDDVLVNDIPPKYREVGMVFQNYALYPHMTVFENIAFPLRARRISKDEVEKRVVEIARKLLIDNLLDRKPTQLSGGQQQRVALARALVKQPKVLLFDEPLSNLDANLRMIMRAEIKHLQQELGITSVYVTHDQAEAMTMASRIAVFNQGKLVQYGTPDEVYDSPKNMFVASFIGNPPTNFLRDFSVSVENKQTILKRDDVIIKLPEPVDVKLKEVVVGIRPEHCRISRERVENSIPGVVYVVEPLGRDIIVNVKTEKGEIIKVFGDTGKAPQPGENVFLVPDLRKIHLFNPETEETIL", "soluble on expression in E. coli": "soluble"},
      {"sequence": "MALKAQNTISGKEGRLFLDGEEMAHIKTFEANVEKNKSEVNIMGRRMTGHKTTGANGTGTATFYKVTSQFVLIMMDYVKKGSDPYFTLQAVLDDASSGRGTERVTLYDVNFDSPKIAGLDVDSEALEEEVPFTFEDFDVPEQLKSTFLEHHHHHH", "soluble on expression in E. coli": "soluble"},
      {"sequence": "MTTQVVNVIGAGLAGSEAAYQIAKRGVQVRLYEMRPVRQTPAHHTDKFAELVCSNSLRANTLTNAVGVIKEEMRLMDSVIIRAADECSVPAGGALAVDRHEFAAKVTEYVKNHPNVTVMNEEITEIPEGPTIIATGPLTSPDLSAQLKELTGEDYFYFYDAAAPIVEKDSIDMNKVYLKSRYDKGEAAYLNCPMTEEEFDRFYEALIAAETVPLKEFEKEIFFEGCMPVEVMASRGRQTLVFGPMKPVGLEDPKTGKTPYAVVQLRQDDAAGTLYNIVGFQTHLKWGPQKEVLQLIPGLENAEIVRYGVMHRNTFINSPNLLRPTYQYKQRDDLFFAGQMTGVEGYVESAASGLLAGINAARLVKGEEPVVLPPVTAMGSMANYITATNAKNFQPMNANFGLFAPLEKKIKKKAERNEAYATRALETIRNFVNILEHHHHHH", "soluble on expression in E. coli": "soluble"}
    ]}
  ]
}
